What was measured:
fibrin monomer = fibrin monomer (UniProt P02675); experiment: ELISA
[1] = target: recombinant von Willebrand factor (VWF) A2 domain polypeptide, A2_(1481-1668) (human) (UniProt P04275); experiment: ELISA
recombinant von Willebrand factor (VWF) A2 domain polypeptide, A2_(1481-1668) (human), sequence (P04275 1481-1668): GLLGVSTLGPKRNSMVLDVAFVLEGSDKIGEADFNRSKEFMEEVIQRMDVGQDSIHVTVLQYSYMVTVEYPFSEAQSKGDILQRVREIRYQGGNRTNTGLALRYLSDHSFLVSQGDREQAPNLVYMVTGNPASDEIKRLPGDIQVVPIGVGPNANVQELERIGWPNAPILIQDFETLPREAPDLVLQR

recombinant von Willebrand factor (VWF) A2 domain polypeptide, A2_(1481-1668), sequence (P04275 1481-1668): as above

EC50 (fibrin monomer)	EC50 [1]	Substance
60 nM		recombinant von Willebrand factor (VWF) A2 domain polypeptide, A2_(1481-1668) (from UniProt P04275 1481-1668) (domain or fragment)
	7 nM	fibrin monomer (from UniProt P02675 45-491; P02679 27-453) (complex)

Source: PMC5270629
